T1: human CD23 (low affinity receptor for IgE, FceRII/CD23) on 8866 cells (human, UniProt P06734 1-321)
T1 construct: whole, on cells; Target of the first step cell ELISA (glutaraldehyde-fixed 8866 cells); also called cellular CD23; FCEL
T1 sequence (looked up): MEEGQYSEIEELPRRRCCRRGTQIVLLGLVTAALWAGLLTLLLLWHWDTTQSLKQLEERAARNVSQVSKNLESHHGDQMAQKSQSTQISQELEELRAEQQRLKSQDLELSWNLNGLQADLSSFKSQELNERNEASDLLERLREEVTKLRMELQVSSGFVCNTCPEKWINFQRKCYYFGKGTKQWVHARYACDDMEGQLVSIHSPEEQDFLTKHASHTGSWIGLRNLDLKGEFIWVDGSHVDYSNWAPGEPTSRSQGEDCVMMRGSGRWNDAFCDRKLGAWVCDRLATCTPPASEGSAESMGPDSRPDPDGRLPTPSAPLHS


Tests used:
[1] = biological target: T1, human CD23 (low affinity receptor for …); assay: cell ELISA on fixed 8866 cells, hybridoma supernatant
Description: The first step of the ELISA comprised the transferral of fifty microliters of supernatant from each well to ninety-six well plates which had previously been coated with 10⁵ 8866 cells (CD23 positive cell line) per well. These plates were made by first coating the plates with 50 μl of aqueous solution containing twenty μg/ml Poly L-Lysine (Sigma Catalog #P1399, MW 150,000-300,000) for thirty minutes at room temperature. The remaining solution was removed (“flicked out”) and the plates left to dry. Once dry, fifty μl of 8866 cells in PBS were transferred and spun at 600 g for five minutes. The 8866 cells were covalently bound to the plate by adding fifty μl 0.5% glutaraldehyde (Sigma Catalog #G6257) in phosphate buffered saline (PBS) for 15 minutes. The glutaraldehyde was removed (flicked out) and the plates blocked with one hundred fifty μl 100 mM glycine (Sigma Catalog #G-2879) in 0.1% BSA-PBS. […] The presence of the HRPO was detected by a color development after the addition of a TMB reagent (Kirkegaard & Perry, Gaithersburg, Md., Catalog #50-76-02 and 50-65-02), 100 μl/well. […] Optical density (OD) was measured at […] on a spectrophotometer (Titertek Multiscan). The OD values greater than two times the background were scored as positive.

[2] = biological target: T1, human CD23 (low affinity receptor for …); assay: cell ELISA on 8866 cells

| binding result [1] | binding result [2] | Binder |
| --- | --- | --- |
| binds | – | primate anti-human CD23 monoclonal antibody 6G5 (antibody, V domains shown, Monoclonal antibody from a cynomolgus macaque heterohybridoma; also called primate 6G5) VH: QLQLQESGPGVVKPSETLSLTCAVSGGSVSSSNWWTWIRQPPGKGLEWIGRISGSGGATNYNPSLKSRVIISQDTSKNQFSLNLNSVTAADTAVYYCARDWAQIAGTTLGFWGQGVLVTVSS VL: QSAPTQPPSVSGSPGQSVTISCTGTSDDVGGYNYVSWYQHHPGKAPKLMIYDVAKRASGVSDRFSGSKSGNTASLTISGLQAEDEADYYCCSYTTSSTLLFGRGTRLTVLG |
| – | binds | primate anti-human CD23 monoclonal antibody 5E8 (antibody, V domains shown, N-linked oligosaccharide at the asparagine of the heavy chain variable region glycosylation site (Kabat 75), Monoclonal antibody from a cynomolgus macaque heterohybridoma; also called primate 5E8) VH: EVQLVESGGGLAKPGGSLRLSCAASGFRFTFNNYYMDWVRQAPGQGLEWVSRISSSGDPTWYADSVKGRFTISRENANNTLFLQMNSLRAEDTAVYYCASLTTGSDSWGQGVLVTVSS VL: DIQMTQSPSSLSASVGDRVTITCRASQDIRYYLNWYQQKPGKAPKLLIYVASSLQSGVPSRFSGSGSGTEFTLTVSSLQPEDFATYYCLQVYSTPRTFGQGTKVEIK |

From patent US20050054833A1 (published 2005)
